Measured values taken from the DeepSol protein solubility set.

Assay: soluble on expression in E. coli; label from the status in PepcDB or PDB records

| Sequence | soluble on expression in E. coli |
| --- | --- |
| MPRRAPAFPLSDIKAQMLFANNIKAQQASKRSFKEGAIETYEGLLSVDPRFLSFKNELSRYLTDHFPANVDEYGRVYGNGVRTNFFGMRHMNGFPMIPATWPLASNLKKRADADLADGPVSERDNLLFRAAVRLMFSDLEPVPLKIRKGSSTCIPYFSNDMGTKIEIAERALEKAEEAGNLMLQGKFDDAYQLHQMGGAYYVVYRAQSTDAITLDPKTGKFVSKDRMVADFEYAVTGGEQGSLFAASKDASRLKEQYGIDVPDGFFCERRRTAMGGPFALNAPIMAVAQPVRNKIYSKYAYTFHHTTRLNKEEKVKEWSLCVATDVSDHDTFWPGWLRDLICDELLNMGYAPWWVKLFETSLKLPVYVGAPAPEQGHTLLGDPSNPDLEVGLSSGQGATDLMGTLLMSITYLVMQLDHTAPHLNSRIKDMPSACRFLDSYWQGHEEIRQISKSDDAMLGWTKGRALVGGHRLFEMLKEGKVNPSPYMKISYQHGGAFLGDILLYDSRREPGSAIFVGNINSMLNNQFSPEYGVQSGVRDRSKRKRPFPGLAWASMKDTYGACPIYSDVLEAIERCWWNAFGESYRAYREDMLKRDTLELSRYVASMARQAGLAELTPIDLEVLADPNKLQYKWTEADVSANIHEVLMHGVSVEKTERFLRSVMPR | soluble |
| SKEHQAVSLEAARQSLVLLKNETNLLPLSKSIRSIAVIGPNANEQTQLICRYGPANAPIKTVYQGIKELLPHTEVIYKKGCDIIDPHFPESEILDFPKTAEEVQLMEEAIRAAKQAEVVVMVLGGNELTVREDRSRTSLNLPGRQEELLKAVCATGKPIILVMLDGRASSINYAAAHIPAILHAWFPGEFCGQAVAEALFGDYNPGGRLAVTFPKSVGQIPFAFPFKPGSDESSSTSVYGALYPFGHGLSYTTF | not soluble |
| MNEQIRTILAEDGTKTSKIRKLLLLGLTHREIADLVTRGNRGFVWNVYKRMRDEGLIVSAGTPTATTTPELDYSFRRKFGVEIEAYNCTCQRLVRELTEAGIEVASERYNHDLRPHWKLVTDSSLNGNDTFELVSPILEGEDGLEKLERVCWVLDSCNVKINGSCGLHVHMNAEDFNITTWRNLLLSYKHAEAEIDKFMPASRRGGSNTYCGSLIQFPDERIRSARNIRELQGLFPSRYMKVNLQAYSRHRTVEFRQHSGTISFTKIENWVCFLDRMITFASVGSLPAGIRLEDFPFLGEKQKLYYKLRTKKLAV | not soluble |
| MGSDKIHHHHHHMNIKDLQYYVSLTQLKNFSLVAAQFHVSQPTISAAIRRLETELKTQLLIRANPHLPVALTTTGIQVQRHANQILLEHQLMCQEVAHTTTDQLVIGMPPIIEINYFPRIASQLPQALFSQIQPISQGSLAALKGLKNGQLDLAVLAYLNEFTDTTIQLTTFDTQSFSIVVPTDDPLATNSQLQFRSLRHQHFVALKDNFVHRQAFRQLSHQNHVRPTIVFESNEIGSILNMVRQHVGIALLSNAVQLPAGLQRLPLTDAQAPTFNVGVAYRHSMTFSPTQADLIQRLTAAFQSVDWRAY | not soluble |
| MKSGVIPSSAVGQKINEWYRYIRTFSVPDAEVLKAEIQQELKHMQHDSNLLLYYSLMEFRHQLMLDYLEPLEKLNIEDQPSLSELSRNIDSNQADLKGLLDYYVNFFRGMYEFDKREFISAITYYKQAEKKLSFVADHIERAEFYFKIAEAYYYMKQTYFSLINIKNAYEIYVEQETYNVRIIQCHFVFGVNLMDERNFEQAARHFKLALNMAQAEQKAQLVGRAYYNLGLCYYNQDLLDPAIDYFEKAVSTFESSRIVNSLPQAYFLITLIYYKQGKHDKASEYHKRGYEYAKETDDADYAVKFEFLQSLYLDQPNEEGIERCFQYLKNKNMYADIEDLALEVAKYYYEQKWFKLSASYFLQVEEARKQIQRSEGLYEIEI | soluble |
| SGIVPQLQNIVSTVNLGCKLDLKTIALRARNAEYNPKRFAAVIMRIREPRTTALIFSSGKMVCTGAKSEEQSRLAARKYARVVQKLGFPAKFLDFKIQNMVGSCDVKFPIRLEGLVLTHQQFSSYEPELFPGLIYRMIKPRIVLLIFVSGKVVLTGAKVRAEIYEAFENIYPILKGFRKTT | soluble |
| METTLVIIRGNSGSGKTTLAQALQRRVGHHTLLVSQDVVRRDMLMSHDYPGNISIGLIEQIVCYGLGRVPVVIVEGILARDRYGKMLARLSQSFPRVLTYYFEVSFATTLARHQKRHRDFGVEDMRRWWLPHDTLGVANEVLIGEQQDLTTEVQQIMTTIHDCDLEHHHHHH | not soluble |
| MAANGVATLNSSGKLAQMPSASDVGALPITGGEMQGALKLKANQYGGSGPADEKYALDCQNSNIVNVNRILTADPAGSASEGWGFQREDDPDAYDVIWASNGTLYFTPGFKYNTPPYPANQRVLATTDNIALTNYLRQEYNKLKESEGTPTLNDIINGFGFCYNDSSNGAGLDGTYLTVSGMLDNKYRLQLLGQYNGSNWLAYRTRNGDEQSWNPWHKVLTDNINAAISARHQYTSSSYPQIYGNGILQLGGDSRNEYGVVLRSNGTDEANAFRPSVNAGTTGHLYLGVANQKWRAVFAQNGTIQTSDRNAKHDITDLDPEKITAFIMGLKPSSYVFNDADSGRTHWGLISQDIEELFPQLGMTSMDFAGFIKSPKTEDYYEDVPETVTDEETGEEKTVTRKELKTRTVEGEYIYSLRYDEFIAPLICMVQRQQRQIEYLERRLSASESKEEAKLEHHHHHH | not soluble |
| VFPSNATFGMGDRVRKKSGAAWQGQIVGWYCTNLTPEGYAVESEAHPGSVHIYPVAALERIN | soluble |
| MSLKSWVKMNSWTSEDTKAVKMWFDLDKYREFENISINMLYHEIWARTYFFKPVIEEGMQKTVLKNYMQILDGDPFLIKEKHLNYMDSENKSYQPPYFFITTVDRIANISFACMRKALFIRANTEQYKIDSTIENEYISEIIPEQFPTTIMLEIDLAGGSDDEIAEALRVSLPQWRKVKGVKPAPLDAVRFGYGAIKKLISYRIIPMLDLLAWSERKKVLLSDDRLSRLLYTDEDDDKAIRQGYHIRDADRPFAMKTVETDFLRQFNFFINKNQHVKEMRVSDVMKLSDSEGHHHHHH | not soluble |
| SAAGSEATTPVIVAAGAGGEEGEHVKPFKPEKAKEIIMSLQQPAIFCNMVFDWPARHWNAKYLSQVLHGKQIRFRMGMKSMSTVPQFETTCNYVEATLEEFLTWNCDQSSISGPFRDYDHSKFWAYADYKYFVSLFEDKTDLFQDVKWSDFGFPGRNGQESTLWIGSLGAHTPCHLDSYGCNLVFQVQGRLECNGMIIAPGPQAILLPQPLKYLGLQETMASLSS | soluble |
| MSLRSTAVLALLLCAGQVFALPVNSPMTKGDTKVMKCVLEVISDSLSKPSPMPVSPECLETLQGDERILSILRHQNLLKELQDLALQGAKERAQQQQEQQHSSFEDELSEVFENQSPDAKHRDAAAEVPSRDTMEKRKDSDKGQQDGFEATTEGPRPQAFPEPNEGHHHHHH | soluble |
| MVTQNKKILIITGSFGNGHMQVTQSIVNQLNEMNLNHLSVIQHDLFMEAHPIMTSICKKWYINSFKYFRNTYKRFYYSRPNELDKCFYKYYGLNKLINLLIKEKPDLILLTFPTPVMSVLTEQFNINIPIATVMTDYRMHKNWITPYSQRYYVATKDTKDDFIEAGVPASYIKVTGIPIADKFELEHHHHHH | not soluble |
| GMSESCILFFVKYPEPGKVKTRLGEVVGNDKAAMLYRHFVQDMLQGLARLHADLHICYVPGDADLPEKFKAWLGPQHMFAAQQGLDLGERMKHAMQKAFDDGYDRVVLMGSDIPDYPCELVQKALNDLQHYDAAIGPAFDGGYYLIGFRKDSFCPDVFDGIRWGEADVYQPTVEKMRRARLEVLQLPDWNDVDTVWDLNVLYRTNKNSSFRRSSTYALLRENDALIRQYDIDLPGMAPVEKE | soluble |
| MAHHHHHHMLRLCLALRSASVQRKPHLFRIDLTSKHTPGHLYLADRAVKSTAADPCFVCLDNAMTCQTVDSNAAVVLRSCMTKGRELFQYGRMRFQGMSAALVFRHNHLVFQGIGDASVQALEMSLQHKDVFALLGGISPHENIPEWARAVEKAIAEGDVEYVAEEMLLQLRCPTEGCTSVVAKISKFSAGLPEPPNYSHAM | not soluble |
| MSDCNWTNPLCNTSLLLASGYALWSCASKKNKKETKTETKKSHDCPPQTIEPVKDEKNSNSEEKKTTSSNNEVPPQKKLIGNDEVKKEKKKSEDDLLDVKKTASKEDDKKRMDKKDPSKKLSKEKLREEKKEQSKKVNKEKKMNKSESVDEDNEQPPEPGSDPRKIWAFKAAKMKCQAISKLHQDKIKGYMPPNCTYTAYDANPDLNRYADVRCIEETRVVLKNHDRDYIHASWMRMPGKDQSTYITTQGPLPETLSDFWHMIYQEKIAYVLMLCTLFEGGVEKCALYYPEKLGEVVKFGKYEITLTECKEEAIAGTIWNALTVTNTEDASSEPLYMNHVQVPWWPDQLAPEDARPMIELYKWVKKVNPKETPICVHCSAGVGRTATFVGIDYATIRIMENPNIEMLDIVREMRAMRFQAVQSHMQFLFLYVVLMEYFIGEGVVERTGRVDTFMTQYKKHAQKKLAKRAAQNQQGEKLAAEEKEKDKVKV | soluble |
| MSTQTVTIKSLGAQGDGIAHCPDGPVYVPFALPGETVAIAKVKDQGTVMSITEASADRRDPVCRHFGPEGINGTCGGCSLQHLADQPYHAFKRELVVSALRSKGLTPPVDDLVICRPGERRRAVFAARKTEKGLLLGFSQANSHHIVAIEECPVTSPGIVSRFDAIRAIGLSMVANAEPFRITVLETLSGLDISVEGIKSVNDKQRRTLTETVLAMRGIARVSLSGEILIEPQKPIIEFGGIPVSPPAGGFTQATKQAEDAMAELMLAHVGKSKRIADLFCGSGTFALRLARIGRVHAVEAEDKALKALDFAARNTQGLKPVSVEKRDLFRRPLMTSELKNYDAVVFDPPRAGAEVQCKELARSTVKKIVAVSCNPLTLARDLAILTEGGYRVTRVTPVDQFLWSPHVEAVAVLEK | not soluble |
| MSAAEGAVVFSEEKEALVLKSWAIMKKDSANLGLRFFLKIFEIAPSARQMFPFLRDSDVPLETNPKLKTHAVSVFVMTCEAAAQLRKAGKITVRETTLKRLGGTHLKYGVADGHFEVTRFALLETIKEALPADMWGPEMRNAWGEAYDQLVAAIKQEMKPAE | soluble |
| MARKVIDVRIVNAATAEQESFIKELSMELIHDVFPLYFSELDIQRLKKKGVLSLNNHYYQGTLKEAFQIMACLQMIHIILTKPSPHSDLSDQAIFEKNSKMLNDFGIYFPFAFSDFQKKTNKAFFGQRRLILEHHHHHH | not soluble |
| HHHHHHMVRAIDEDCSQYEPIPGSQKAALGYNILTQEDAQSVYDASYYGGQCETVYNGEWRELRYDSTCERLYYGDDEKYFRKPYNFLKYHFEALADTGISSEFYDNANDLLSKVKKDKSDSFGVTIGIGPAGSPLLVGVGVSHSQDTSFLNELNKYNEKKFIFTRIFTKVQTAHFKMRKDDIMLDEGMLQSLMELPDQYNYGMYAKFINDYGTHYITSGSMGGIYEYILVIDKAKMESLGITSRDITTCFGGSLGIQYEDKINVGGGLSGDHCKKFGGGKTERARKAMAVEDIISRVRGGSSGWSGGLAQNRSTITYRSWGRSLKYNPVVIDFEMQPIHEVLRHTSLGPLEAKRQNLRRALDQYLM | soluble |
| MSLAEPVLGDDGLYQLDWYLQSFLDLKEDLEGATAKGKRFAILWGLKGCPYCKKLHDVHMRDPAIESYIRDNFEIVHLNHIGAREVTDFDGSKLSEKAFAQAYGIRFTPSLQFFPESADGLAAKKPQDREVARMPGLLEPPEFLAMFKYVREKGYQSMPFTDWLKREGHHHHHH | soluble |
